Here are results for 41 sequences from the nanobody polyreactivity screen of Harvey et al. (2022).

This data set is described as follows: yeast display, Sf9 membrane polyspecificity reagent, FACS + sequencing; frameworks hold sequencing errors. In outline:
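Sorting gates, low and high (top ~1%), were placed on anti-HA fluorescence to track expression and on streptavidin fluorescence to track reagent binding. A clone's polyreactivity label is taken from the gate it came out of. The reagent was 10% biotinylated, detergent-solubilized Sf9 membrane, applied for 1 hour at 4 °C to galactose-induced yeast display cells.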
On to “QVQLVESGGGLVQAGGSLRFSCAASGFIFTYNAMGWYRQAPGKERELVAAITRNGVSTHYADSVKGRFTISRDNAKNSVYLQMNSLKPEDTAVYYCAADPRGWRHYYWGQGTQVTVSS”, for which the “polyreactivity (PSR sort gate)” value is “low polyreactivity”.

Turning to “QVQLVESGGGLVQAGGSLRFSCAASGFIFVVNAMGGSRQAPGKEREFVAVISSSTGSTYYADSVKGRFTISRDNAKTTVYLQMNSLKPEDTAVYYCAAASRRRRPLKRMDYWGQGTQVTVSS”, the “polyreactivity (PSR sort gate)” value is listed as “low polyreactivity”.

Take “QVQLVESGGGLVQAGGSLRFSCAASGFTFSSNAMGWYRQAPGKERELVAAITASGASTYYADSVKGRFTISRDHAKNTVYLQMNSLKPEDTAVYYCAVKTSPRRYYWGQGTQVTVSS”: the “polyreactivity (PSR sort gate)” value is reported as “high polyreactivity”. Take “QVQLVESGGGLVQAGGSLRFSCAASGFTFVYYVMGWYRQAPGKERELVAAINAGGGSTYYADSVKGRFTISRDNAKNTVYLQMNSLKPEDTAVYYCNARVRLGRNWSSYYYWGQGTQVTVSS”: the “polyreactivity (PSR sort gate)” value is listed as “high polyreactivity”. In the case of “QVQLVESGGGLVQAGGSLRFSCAASGFTFYPNTMGWYRQAPGTERELVAAISSSGGRTYYADSVKGRFTISRDNAKNTVYLQMNSLKPEDNAVYYCNAAKWLTSGGLDYWGQGTQVTVSS” it was “high polyreactivity”.

As to “QVQLVESGGGLVQAGGSLRFSCAASGIIFYYKTMGLYRQAPGKERELVASITWSGDTTYYAYSVKGRYTISRDNAKNSVYLQMNSLKPEDTAVYYCAAACYWYPSYSSYLGMYYWGQGTKVTVSS”, the “polyreactivity (PSR sort gate)” value is reported as “low polyreactivity”. Then “QVQLVESGGGLVQAGGSLRFSCAASGLTFNHNAMGWYRQAPGKERELVAAISRRGGSTYYADSVKGRFTISRDNAKNTVYVQMNSLKPEDTAVYYCNKDFPTLYSRGRYIYWGQGTQVTVSS”, with “high polyreactivity”; and “QVQLVESGGGLVQAGGSLRFSCAASGNIIDLYAMGWYRQARGQERVLVAAITRSSSRTYYADSVKGRFTISRDIAKNTVYLQMNSLKPEDTAVYYCRANQVNRLDYWGQGTQVTVSS”, with “high polyreactivity”. Then “QVQLVESGGGLVQAGGSLRFSCAASGRIFPAYAMGWYRQAPGKEREWVDAISRRGGSTYYADTVKGRFTISRDNAKNTVYLQMNSLNPEDTAVYYCAKEVWDSLGYPHSGDYWGQGTQVTVSS”, with “low polyreactivity”; and “QVQLVESGGGLVQAGGSLRFSCAASGRIFWYYVMGWDRQAPGKEREFVASISSGGSTYYADSVKGRFTISRDNANNTVYLQMNSLKPEDTAVYYCNAYVYGQRVWYDYWGQGTQVTVSS”, with “high polyreactivity”; and “QVQLVESGGGLVQAGGSLRFSCAASGRTFQYYTMGWSRQAPGKEREFVAAIRDSGGSTYYADSVKGRFTISRDNAKNTVYLQMNSLKPEDTAVYYCAAYRPRKYDYWGQGTQVTVSS”, with “high polyreactivity”. In the case of “QVQLVESGGGLVQAGGSLRFSCAASGRTFYPYAMGWYRQAPGKERELVAAINGGGRTYYADSVKGRFTISRDNAKNTVYLQMNSLKPEDTAVYYCATRYPAWRYDYNYWGQGTQVSVSS” it was “high polyreactivity”. For the sequence “QVQLVESGGGLVQAGGSLRFSCAASGSIFITYAMGWSRQAPGKERELVAAIRDSGDRTYYADSVKGRFTISRDNAKNTVYLQMNSLKPEDTAVYYCNARWQEPLKYDYWGQGTQVTVSS”, the “polyreactivity (PSR sort gate)” value is “low polyreactivity”. Consider “QVQLVESGGGLVQAGGSLRFSCAASGSIFSVYAMGWYRQAPGKEREWVAAITSGTYTYADSVKGRFTISRDNAKNSVYLQMNSLKAEDTAVYYCAAESGSPGYYYWGQGTQVTVST”, for which the “polyreactivity (PSR sort gate)” value is given as “low polyreactivity”. Regarding “QVQLVESGGGLVQAGGSLRFSCAASGSIFYGYTMGWYRQAPGKERELVAGISTYYADSVKGRFTISRDTAKNTVYLQMNSLKPEDTAVYYCAADYSSPTSEYDYWGQGTQVTVSS”, the “polyreactivity (PSR sort gate)” value is recorded as “low polyreactivity”. Then “QVQLVESGGGLVQAGGSLRFSCAASGSTFFSYAMGWYRQAPGKERELVATIRGSAGRTYYADSVKGRFTISRDHANYTVYLQMNSLKPEDTAVYYCARRYWPGSAYWIYDYWGQGTQVTVSS”, with “high polyreactivity”; and “QVQLVESGGGLVQAGGSLRFSCAASGSTFSYYAMGWYRQAPRKEREFVAAMSWNGGSTYYADSVKGRYTISRDNAKNTVYLHMNSLKPEDTEVYYCAADFKYGYSHGFRQRLYDYWGQGTQVTVSS”, with “low polyreactivity”. As for “QVQLVESGGGLVQAGGSLRFSCAASGSTFVYNAMGWYRQAAGQERELVAVITYRGGRTYYADSVKGRFTISRDNAKNTVYLQINSLKPEDTAVYYCAAQTFRYRKKLDYWGQGTQVTVSS”, the “polyreactivity (PSR sort gate)” value was “high polyreactivity”. Then “QVQLVESGGGLVQAGGSLRFSCAASGSTFYYYAMGWYRQAPGKERELVAAINTSGGITYYADSVKGRFTISRDNAKNTVYLQMNSLKPEDTAVYYCATQLWDRYGFGYWGQGTQVTVSS”, with “high polyreactivity”; and “QVQLVESGGGLVQAGGSLRFSCAASGTFVPYAMGWYRQAPGKEMELVARITWRGGSTYYADSVKGRFTISRDNANNTVYLQMNSLKPEETAVYYCATVSDNRYYYWGQGTQVTVSS”, with “low polyreactivity”. Consider “QVQLVESGGGLVQAGGSLRFSCADSGSIFVRYAMGWYRQAPGKERELVAAISVRGGRTYYADSVKGRFTISRDNAKNTVYLQMNSLKPEDTAVYYCAAQLYYYYTYVPPGGYWGQGTQVTVSS”, for which the “polyreactivity (PSR sort gate)” value was “high polyreactivity”. In the case of “QVQLVESGGGLVQAGGSLRFSCDASGRSFYINAMGWYRQAPGKERELVAAITWSGGRTYYADSVKGRFTISRDNAKNTVYLQMNSLKPEDTAVYYCNTRSYSFYVPYRYDYWGQGTHVTVSS” it was “high polyreactivity”; in that of “QVQLVESGGGLVQAGGSLRFTCAASGRTFIGYAMGWYRHAPGKERELVATISVSGGSTYYADSVKGRYTISRDNAKKTVYLHMNSLKPEDTAVYYCAKAYLRYYDGPYDYWGQGTQVTLSS”, “low polyreactivity”; in that of “QVQLVESGGGLVQAGGSLRIICAASGRTFSYYAMGWYRQAPGKERELVAAITAGGNTYYADSVKGRFTISRDNAKNTVYLQMNSLKAEDTAVYYCAATYYWAWGGVYHSEFDYWGQGTQETVSS”, “low polyreactivity”. As to “QVQLVESGGGLVQAGGSLRIICAASGSTLGYNAMGWYRQAPGKERELVAAISSDGGSTYYADSVKGRFTISRDNAKNTVYLQMNSLKPEDTAVYYCAAYYYTPGYGSWGQGTQVTVSS”, the “polyreactivity (PSR sort gate)” value was “low polyreactivity”. Turning to “QVQLVESGGGLVQAGGSLRIRCAASGGIFPPNAMGWYRHPPGKERELVASISSDGSTNYADSVKGRFTISRDNAKNNVILQMNSLKPEDTAVFYCNATHEAFELDYWGQGTQVNVSS”, the “polyreactivity (PSR sort gate)” value is given as “low polyreactivity”. In the case of “QVQLVESGGGLVQAGGSLRIRCAASGLIFGFYAMGWYRQAPGKERELVAAINSGGITYYADSVKGRFTISRDNAKNTVYLQMNSLKPEDTAVYYCNKDSHISTAYDYWGQGTQVTVSS” it was “low polyreactivity”; in that of “QVQLVESGGGLVQAGGSLRIRCAASGRIFPYYAMGWYRQAPGKERDLVATITSGGSTYYADTVKGRFTISRDNSKNTVYLQMKSLKPEDTAVYYCAARYPSIYYYRYDFWGQGTQVTVSS”, “high polyreactivity”. Then “QVQLVESGGGLVQAGGSLRISCAASGFIFWIYAMGWYRQAPGKEREFVAVITYRGDTTYYADSVKGRFTISRDNAKNTVYLQMNSLKPEDTAVYYCAAYTVQKYGYWGQGTQVTVSS”, with “low polyreactivity”.

On to “QVQLVESGGGLVQAGGSLRISCAASGFTFALYAMGWYRQAPGKERELVAAITRRGGSTYYADSVKGRFTISRDNAKNTVYLQMNSLKPEDTAVYNCAKRERAIKVSRYDSHDYWGQGTQVTVSS”, for which the “polyreactivity (PSR sort gate)” value is listed as “high polyreactivity”. Then “QVQLVESGGGLVQAGGSLRISCAASGFTFGVYAMGWYRPAPGKEREFVASISFSGGRTYYSDSVKGRFTISRDNAKNTVYLQMNSLKPEDTAVYYCAKRWSADDYWGQGTQVTVSS”, with “high polyreactivity”; and “QVQLVESGGGLVQAGGSLRISCAASGFTFKRYAMGWYRQAPGKERELVAAITWRGGSTYYADSVKGRFTISRDNAKNTVYLQMNSLKPEDTAVYYCAAYSYPYWQKRPYDYWGQGTQVTVSS”, with “high polyreactivity”; and “QVQLVESGGGLVQAGGSLRISCAASGFTFRNYAMGWYRQAPGKEREFVASISFAGGRTYYADSVKGRFTISRDNAKNTVYLQMNSLKPEDTAVYYCAKKSYSKYDYWGQGTQVTVSS”, with “high polyreactivity”. Take “QVQLVESGGGLVQAGGSLRISCAASGFTFWLYAMGWYRQAPGKERELVATISWSGGSTYYADSVKGRFTISRDNAKNTVYVQMNSLKPEDTAVYYCATRYRSYSVFGYGYWGQGTQVTVSS”: the “polyreactivity (PSR sort gate)” value is on record as “high polyreactivity”. “QVQLVESGGGLVQAGGSLRISCAASGFTFYYNAMGWYRQAPGKERELVASISSNGTSTYYADSVKGRFTISRDNAKNTVYLQMNSLKPEDTAVYYCNVDIFDPRTYDYWGQGTQVTVSS”: the “polyreactivity (PSR sort gate)” value is reported as “low polyreactivity”.

As for “QVQLVESGGGLVQAGGSLRISCAASGGTFVPYAMGRSRQAPGKERELVARISKRGGTTYYADSVKGRFTISRDIGKNTVYLQMNSLKPEDTAVYYCAAVLPARGYYWGLGTQVTVSS”, the “polyreactivity (PSR sort gate)” value is reported as “high polyreactivity”. In the case of “QVQLVESGGGLVQAGGSLRISCAASGIIFSPYVMGWYRQAPGKERELVAAITTGDSTNYADSVKGRFTISRDNAKNTVYLQMKSLKPEDSAVYYCNADLYVGYLYYLFDYWGQGTQVSVSS” it was “low polyreactivity”. In the case of “QVQLVESGGGLVQAGGSLRISCAASGIIFSVYAMAWYRQAPGKERELVAAISYSGGRTYYADSVKGRFTISRDNAKNTVYLQMNSLKPEDTAVYYCAAGFSLYLGFEYWGQGTQVTVSS”, the “polyreactivity (PSR sort gate)” value is listed as “high polyreactivity”. Consider “QVQLVESGGGLVQAGGSLRISCAASGIIFSYYAMGWYRQAPGKERELVAAIRENGGSTYYADSVKGRFTISRDNAKNTVYLQMNSLKPEDTAVYYCAVDTTYYAGYEYDYWGQGTQVTVSS”, for which the “polyreactivity (PSR sort gate)” value is “low polyreactivity”. Then “QVQLVESGGGLVQAGGSLRISCAASGITFKKNDMGWYRQAPGKERELVAAISGRGGSTYYADSVKGRFTISRDNAKNTVYLQMNSLKPEDTAVYYCAADNFKGDSYGTGTYDYWGQGTQVTVSS”, with “high polyreactivity”. Consider “QVQLVESGGGLVQAGGSLRISCAASGITFYANTMGWYRQAPGKEREFVAAISGIGGSTYYADSVKGRFAISRDNAKNTVYLQMNSLKPEDPAVYYCNADVYYFLFGTFDYWGQGTQVTVSS”, for which the “polyreactivity (PSR sort gate)” value is on record as “low polyreactivity”.
